{"source": "patent US20030148973A1", "about": "“MAGE-A1 peptides for treating or preventing cancer” (priority 2001, published 2003)", "molecular_target": "HLA-A0201 molecules on the surface of T2 cells", "experiment": "T2 cell HLA-A0201 stabilization; 20 µg peptide on 10^6 acid-stripped T2 cells, BB7.2 staining, flow cytometry", "conditions": "remark: other sources report otherwise"}
{"binder": "CLGLSYDGL", "note": "[MAGE-A1 174]", "values": [{"measurement": "Fluorescence Index (FI)", "result": 1.73, "unit": "FI"}]}
